Experimental data from publication PMC5819227.

Molecular target: Enc-I3-01-MhIHL-V54L (engineered ketohydroxyglutarate aldolase from T. maritima fused at its C terminus to the (+)-γ-lactamase mutant MhIHL-V54L from Microbacterium hydrocarbonoxydans) (Thermotoga maritima | Microbacterium hydrocarbonoxydans)
Assay: negative-stain transmission electron microscopy; purified protein at 1.33 mg/mL adsorbed onto copper grids, stained with 3% uranyl acetate

- stoichiometry N: 60 subunits
Substance: Enc-I3-01-MhIHL-V54L (engineered ketohydroxyglutarate aldolase from T. maritima fused at its C terminus to the (+)-γ-lactamase mutant MhIHL-V54L from Microbacterium hydrocarbonoxydans)
